Key:
[1] = molecular target: polymerization-deficient p62^1–102 (D69A/D73A) (human) (UniProt Q13501); assay: ITC; VP-ITC, 25 °C, 10 mM HEPES pH 7.5, 150 mM NaCl; p62 D69A/D73A in the cell (5–20 μM), partner PB1 domain in the syringe (25–100 μM); one-site model; mean of three measurements
[2] = molecular target: p62 PB1 (Homo sapiens) (UniProt Q13501); details: cited from earlier work

Row | Kd [1] | Substance | Kd [2]
1 | 12.6 nM | NBR1^1–85 (human NBR1–PB1) (from UniProt Q14596 1-85) (domain or fragment) | 
2 | 8.9 nM | PKCζ^11–101 (pKCζ–PB1) (from UniProt Q05513 11-101) (domain or fragment) | 
3 |  | p62 PB1 (from UniProt Q13501) | 6 nM
